In patent CN101627111A (CENTOCOR INC, dated 2010):

Target: human tissue factor on HCT 116 human colon carcinoma cells (human, UniProt P13726 33-295)
Experiment: cell-based or functional assay

ADCC potency (EC50 and maximal lysis) against C463-derived CNTO 860: 20 to 60 倍
B1: CNTO 860 produced in YB2/0-derived host cell line C1083B (antibody, human IgG1, kappa, V domains shown)
VH: QVQLVESGGGVVQPGRSLRLSCKASGFNIKDYYMHWVRQAPGKGLEWIGLIDPENGNTIYDPKFQGRFTISADNSKNTLFLQMDSLRPEDTAVYYCARDNSYYFDYWGQGTPVTVSS
VL: DIQMTQSPSSLSASVGDRVTITCKASQDIRKYLNWYQQKPGKAPKLLIYYATSLADGVPSRFSGSGSGTDYTFTISSLQPEDIATYYCLQHGESPYTFGQGTKLEITR
modifications: Fc N-glycan about 40% fucosylated
